Assay results from patent publication US20240150423A1, “GLP-1 ANALOGUE-MODIFIED DIMERS WITH DIFFERENT CONFIGURATIONS, PREPARATION METHOD THEREOF, AND APPLICATION THEREOF IN TREATMENT OF TYPE II DIABETES” (Nanjing Finepeptide Biopharmaceutical Co.,Ltd, priority 2019, published 2024).
Starred links: 1 amine or outer side, 2 acyl side, 3 side chain; linkers in the order of their positions; H or OH if unused. Groups on a side chain read outwards from the residue. γGlu = O=C(O)[C@H](CCC(=O)[*:2])N[*:1]; oleoyl = alkanoyl with 18 carbons

B1: 2G2 series 10: disulfide-linked homodimer of monomer SEQ ID NO: 10 (peptide)
chain 1: HAEGTFTSDVCSYLEGQAAXEFIAWLVRGRG
chain 2: HAEGTFTSDVCSYLEGQAAXEFIAWLVRGRG
modifications: not fully specified; disulfide-linked homodimer; Sequence is synthesized; (20)..(20) Xaa is 26Lys[N-e-(N-a-oleoyl-L-g-glutamyl)]; (31)..(31) N-terminal
B2: 2G2 series 15: disulfide-linked homodimer of monomer SEQ ID NO: 15 (peptide)
chain 1: HXEGTFTSDVCSYLEGQAAXEFIAWLVRGRG
chain 2: HXEGTFTSDVCSYLEGQAAXEFIAWLVRGRG
modifications: not fully specified; disulfide-linked homodimer; Sequence is synthesized; (2)..(2) Xaa is bAib; (20)..(20) Xaa is 26Lys[N-e-(N-a-oleoyl-L-g-glutamyl)]; (31)..(31) N-terminal
B3: 2G2 series 18: disulfide-linked homodimer of monomer SEQ ID NO: 18 (peptide)
chain 1: HXEGTFTSDVCSYLEGQAAXEFIAWLVRGRG
chain 2: HXEGTFTSDVCSYLEGQAAXEFIAWLVRGRG
modifications: not fully specified; disulfide-linked homodimer; Sequence is synthesized; (2)..(2) Xaa is bAla; (20)..(20) Xaa is 26Lys[N-e-(N-a-oleoyl-L-g-glutamyl)]; (31)..(31) N-terminal
B4: 2G9 series 70: disulfide-linked homodimer of monomer SEQ ID NO: 70 (peptide)
chain: HAEGTFTSDVSCYLEGQAAK([γGlu-oleoyl])EFIAWLVRGRGHGEGTFTSDVSSYLEGQAAREFIAWLVRGRG
modifications: also: disulfide-linked homodimer, feature at 62: C-terminal
B5: His-Ala-Glu-Gly-Thr-Phe-Thr-Ser-Asp-Val-Ser-Cys-Tyr-Leu-Glu-Gly-Gln-Ala-Ala-Lys[N-ϵ-(N-α-oleoyl-L-γ-glutamyl)]-Glu-Phe-Ile-Ala-Trp-Leu-Val-Arg-Gly-Arg-Gly-His-Gly-Glu-Gly-Thr-Phe-Thr-Ser-Asp-Val-Ser-S … (peptide)
chain: HAEGTFTSDVSCYLEGQAAK([γGlu-oleoyl])EFIAWLVRGRGHGEGTFTSDVSSYLEGQAAREFIAWLVRGRG-OH

System: Normal Kunming (KM) mice
Assay: multiple OGTT (mOGTT): hypoglycemic duration after a single administration
Format: in vivo
Conditions: single injection at the same dose (1.126 nmol), subcutaneous
Text: • 1. Methods: Normal Kunming (KM) mice (purchased from Guangdong Animal Center) were used for oral glucose tolerance test (OGTT) to obtain the hypoglycemic activity and durability of drug. […] The blood glucose meter and blood glucose test paper were from Bayer […]. The average blood glucose of each group was used as an evaluation standard: When the average blood glucose of experimental group was higher than that of the NaCl control group for two times, the measurement stopped and the hypoglycemic period compared to the blank control group was the effective duration. • 2. Results • 2.1 single OGTTs: after a single administration, the mice were orally administered glucose once and measured the blood glucose from the tail blood at 0, 10, 20, 40, 60 and 120 min. […] The duration of each monomer group was about 1⁄2-1⁄4 of the duration of its corresponding dimer group. […] Therefore, the 2G3 peptide was selected for treating type II diabetes (T2D) in vivo and subsequent experiments.

| Molecule | Hypoglycemic duration [days] | Hypoglycemic (day) (monomeric peptides) |
| --- | --- | --- |
| B1 | 8 | – |
| B2 | 10 | – |
| B3 | 9 | – |
| B4 | 11 | – |
| B5 | – | 5 (G9 peptide) day |
